Measured values from patent publication US20230235013A1 (MABSOLVE, published 2023).
Where a chain is given by its changes, count along the chain named. In names and notes the source's numbering stands.

B1: anti-CD20 (rituximab) human IgG1 L234A/L235A/K322A (antibody)
heavy: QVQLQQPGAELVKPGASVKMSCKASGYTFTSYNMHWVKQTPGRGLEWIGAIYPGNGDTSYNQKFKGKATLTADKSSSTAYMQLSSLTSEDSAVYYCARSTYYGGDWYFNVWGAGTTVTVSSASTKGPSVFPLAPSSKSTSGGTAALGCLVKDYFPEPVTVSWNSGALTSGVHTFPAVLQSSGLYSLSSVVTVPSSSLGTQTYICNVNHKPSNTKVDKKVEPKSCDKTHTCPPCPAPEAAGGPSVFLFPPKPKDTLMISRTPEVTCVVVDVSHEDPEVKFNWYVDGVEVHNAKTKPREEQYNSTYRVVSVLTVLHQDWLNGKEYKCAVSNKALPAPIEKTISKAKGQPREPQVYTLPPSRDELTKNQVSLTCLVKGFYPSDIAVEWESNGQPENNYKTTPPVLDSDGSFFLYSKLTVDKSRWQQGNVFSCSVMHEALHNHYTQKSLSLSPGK
light: QIVLSQSPAILSASPGEKVTMTCRASSSVSYIHWFQQKPGSSPKPWIYATSNLASGVPVRFSGSGSGTSYSLTISRVEAEDAATYYCQQWTSNPPTFGGGTKLEIKRTVAAPSVFIFPPSDEQLKSGTASVVCLLNNFYPREAKVQWKVDNALQSGNSQESVTEQDSKDSTYSLSSTLTLSKADYEKHKVYACEVTHQGLSSPVTKSFNRGEC
notes: EU numbering; also called 2-74; copies: 2 + 2
B2: anti-CD20 (rituximab) human IgG1 L234F/L235E/P331S (antibody)
heavy: QVQLQQPGAELVKPGASVKMSCKASGYTFTSYNMHWVKQTPGRGLEWIGAIYPGNGDTSYNQKFKGKATLTADKSSSTAYMQLSSLTSEDSAVYYCARSTYYGGDWYFNVWGAGTTVTVSSASTKGPSVFPLAPSSKSTSGGTAALGCLVKDYFPEPVTVSWNSGALTSGVHTFPAVLQSSGLYSLSSVVTVPSSSLGTQTYICNVNHKPSNTKVDKKVEPKSCDKTHTCPPCPAPEFEGGPSVFLFPPKPKDTLMISRTPEVTCVVVDVSHEDPEVKFNWYVDGVEVHNAKTKPREEQYNSTYRVVSVLTVLHQDWLNGKEYKCKVSNKALPASIEKTISKAKGQPREPQVYTLPPSRDELTKNQVSLTCLVKGFYPSDIAVEWESNGQPENNYKTTPPVLDSDGSFFLYSKLTVDKSRWQQGNVFSCSVMHEALHNHYTQKSLSLSPGK
light: B1 light
notes: EU numbering; also called 2-75; copies: 2 + 2
B3: anti-CD20 (rituximab) human IgG1 L234K/L235S/G236R (antibody)
heavy: B2 heavy with F238K, E239S, G240R, S335P
light: B1 light
notes: EU numbering; also called 2-24; 1-89; copies: 2 + 2
B4: anti-CD20 human IgG1 L234T/L235A/G236R (antibody)
heavy: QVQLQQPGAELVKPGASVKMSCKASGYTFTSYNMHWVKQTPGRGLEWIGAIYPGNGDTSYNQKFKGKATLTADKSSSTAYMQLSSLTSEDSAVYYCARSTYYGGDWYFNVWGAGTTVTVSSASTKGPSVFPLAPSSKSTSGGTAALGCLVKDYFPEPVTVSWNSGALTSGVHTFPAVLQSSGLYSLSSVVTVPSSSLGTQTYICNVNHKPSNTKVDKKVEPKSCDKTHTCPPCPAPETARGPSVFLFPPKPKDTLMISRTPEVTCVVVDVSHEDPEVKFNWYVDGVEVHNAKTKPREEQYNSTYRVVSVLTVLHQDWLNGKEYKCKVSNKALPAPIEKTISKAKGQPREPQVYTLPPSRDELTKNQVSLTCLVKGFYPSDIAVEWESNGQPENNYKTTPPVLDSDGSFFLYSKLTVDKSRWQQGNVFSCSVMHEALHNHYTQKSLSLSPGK
light: B1 light
notes: also called 2-54; 1-152
B5: anti-CD20 human IgG1 L234G/L235H/G236R (antibody)
heavy: B2 heavy with F238G, E239H, G240R, S335P
light: B1 light
notes: also called 2-17; 1-51
B6: anti-CD20 human IgG1 L234H/L235I/G236R (antibody)
heavy: B2 heavy with F238H, E239I, G240R, S335P
light: B1 light
notes: also called 2-20; 1-67
B7: anti-CD20 human IgG1 L234R/L235D/G236R (antibody)
heavy: B2 heavy with F238R, E239D, G240R, S335P
light: B1 light
B8: anti-CD20 human IgG1 L234S/L235I/G236R (antibody)
heavy: B2 heavy with F238S, E239I, G240R, S335P
light: B1 light
notes: also called 2-49
B9: anti-CD20 human IgG1 L234G/L235Q/G236R (antibody)
heavy: B2 heavy with F238G, E239Q, G240R, S335P
light: B1 light
notes: also called 2-18; 1-57
B10: anti-CD20 human IgG1 L234Q/G236R (antibody)
heavy: not shown
light: B1 light
notes: also called 2-30
B11: anti-CD20 human IgG1 L234Q/L235R/G236R (antibody)
heavy: B2 heavy with F238Q, E239R, G240R, S335P
light: B1 light
notes: also called 2-32
B12: anti-CD20 human IgG1 L234T/L235I/G236R (antibody)
heavy: B2 heavy with F238T, E239I, G240R, S335P
light: B1 light
notes: also called 2-57; 1-157
B13: anti-CD20 human IgG1 L234S/G236R (antibody)
heavy: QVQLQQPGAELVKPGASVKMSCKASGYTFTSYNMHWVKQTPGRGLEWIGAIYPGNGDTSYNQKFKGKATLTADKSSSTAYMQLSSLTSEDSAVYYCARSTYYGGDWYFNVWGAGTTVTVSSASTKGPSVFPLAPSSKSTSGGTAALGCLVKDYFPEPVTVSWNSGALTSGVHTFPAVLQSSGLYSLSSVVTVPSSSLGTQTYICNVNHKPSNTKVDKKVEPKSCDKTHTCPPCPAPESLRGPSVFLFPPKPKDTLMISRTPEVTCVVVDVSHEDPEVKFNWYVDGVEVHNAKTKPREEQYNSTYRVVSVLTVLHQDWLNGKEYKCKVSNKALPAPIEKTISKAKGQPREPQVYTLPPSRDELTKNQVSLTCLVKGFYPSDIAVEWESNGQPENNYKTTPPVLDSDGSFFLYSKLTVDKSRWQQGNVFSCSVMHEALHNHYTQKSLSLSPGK
light: B1 light
notes: also called 2-50
B14: anti-CD20 human IgG1 L234S/L235E/G236R (antibody)
heavy: B2 heavy with F238S, G240R, S335P
light: B1 light
notes: also called 2-46
B15: anti-CD20 human IgG1 L234T/L235D/G236R (antibody)
heavy: B2 heavy with F238T, E239D, G240R, S335P
light: B1 light
notes: also called 2-55
B16: anti-CD20 human IgG1 L234K/L235T/G236R (antibody)
heavy: B2 heavy with F238K, E239T, G240R, S335P
light: B1 light
notes: also called 2-25; 1-90
B17: anti-CD20 human IgG1 L234Q/L235D/G236R (antibody)
heavy: B2 heavy with F238Q, E239D, G240R, S335P
light: B1 light
notes: also called 2-28
B18: anti-CD20 human IgG1 L234Q/L235H/G236R (antibody)
heavy: B2 heavy with F238Q, E239H, G240R, S335P
light: B1 light
notes: also called 2-29

target: T1, human FcRn (R&D Systems Cat. No. 8639-Fc) (human, UniProt P55899 24-297; P61769 21-119); test: SPR, FcRn captured; Expt 1
T1 sequence (P55899 24-297 limits assumed, chain 1 of 2): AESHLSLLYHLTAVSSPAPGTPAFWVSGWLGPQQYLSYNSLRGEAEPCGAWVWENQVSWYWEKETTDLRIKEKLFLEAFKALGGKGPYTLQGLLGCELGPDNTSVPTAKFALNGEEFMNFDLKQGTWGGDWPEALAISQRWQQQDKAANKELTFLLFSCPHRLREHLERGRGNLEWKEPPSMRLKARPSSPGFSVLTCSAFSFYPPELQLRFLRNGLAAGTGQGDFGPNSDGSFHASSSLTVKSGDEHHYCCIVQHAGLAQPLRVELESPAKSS
T1 sequence (P61769 21-119 limits assumed, chain 2 of 2): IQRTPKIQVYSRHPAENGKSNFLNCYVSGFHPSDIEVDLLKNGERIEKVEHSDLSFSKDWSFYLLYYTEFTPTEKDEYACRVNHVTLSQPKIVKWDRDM

Compared with B1, B2 is higher in “Corrected and normalised response (% of wild-type reference)” value: 94 % of wild-type reference for the first, 96.1 % of wild-type reference for the second.

B3 was tested, and the “Corrected and normalised response (% of wild-type reference)” value was 100 % of wild-type reference.

target: T2, Histidine-tagged recombinant human FcγRI (CD64) (human, UniProt P12314 16-288, limits assumed); test: SPR, His-FcγRI captured; Expt 3;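 also: biacore T200 SPR at 25 °C, Fc-variant antibodies at 100 µg/mL flowed 1 min over anti-His-captured FcγRI, signal taken just before injection end minus a buffer blank cycle; antibody analyte injected at 100 µg/mL for 1 min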
T2 construct: bought

First: B4
Second: B5
The “Corrected response (RU)” value of the first is lower: 7.2 RU for the first, 24.4 RU for the second.

Going from B6 to B7, the “Corrected response (RU)” value falls from 22.8 RU to 4.2 RU.

Going from B8 to B9, the “Corrected response (RU)” value falls from 6.4 RU to 6.1 RU.

Going from B10 to B11, the “Corrected response (RU)” value falls from 49 RU to 9.4 RU.

First: B12
Second: B13
The “Corrected response (RU)” value of the first is lower: 24.2 RU for the first, 30.9 RU for the second.

First: B14
Second: B15
The “Corrected response (RU)” value of the first is lower: 6.9 RU for the first, 62.3 RU for the second.

Compared with B16, B17 is higher in “Corrected response (RU)” value: 1.1 RU for the first, 4.4 RU for the second.

In the case of B18, the “Corrected response (RU)” value is reported as 8.1 RU.

target: T2, Histidine-tagged recombinant human …; test: SPR, His-FcγRI captured; mean;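 also: biacore T200 SPR at 25 °C, anti-His surface capturing FcγRI, Fc-variant antibodies injected at 100 µg/mL for 1 min, signal near injection end minus third buffer blank, three repeats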

Compared with B4, B5 is higher in “Corrected response (RU), Mean” value: 5.4 RU for the first, 10.1 RU for the second.

Going from B6 to B7, the “Corrected response (RU), Mean” value falls from 15.6 RU to 1.8 RU.

Going from B8 to B9, the “Corrected response (RU), Mean” value rises from 4.8 RU to 5.3 RU.

Going from B10 to B11, the “Corrected response (RU), Mean” value falls from 39.3 RU to 3.9 RU.

Going from B12 to B13, the “Corrected response (RU), Mean” value rises from 16.2 RU to 28.7 RU.

Compared with B14, B15 is higher in “Corrected response (RU), Mean” value: 5.3 RU for the first, 32.4 RU for the second.

First: B16
Second: B17
The “Corrected response (RU), Mean” value of the first is lower: -0.6 RU for the first, 3.8 RU for the second.

In the case of B18, the “Corrected response (RU), Mean” value is reported as 5.7 RU.

target: T2, Histidine-tagged recombinant human …; test: SPR, His-FcγRI captured; Expt 2;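 also: biacore T200 SPR at 25 °C, Fc-variant antibodies at 100 µg/mL flowed 1 min over anti-His-captured receptor, signal read near injection end minus third buffer blank; antibody analyte injected at 100 µg/mL for 1 min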

Going from B4 to B5, the “Corrected response (RU)” value falls from 4.8 RU to 4.2 RU.

Compared with B6, B7 is lower in “Corrected response (RU)” value: 10.9 RU for the first, 0.9 RU for the second.

First: B8
Second: B9
The “Corrected response (RU)” value of the first is lower: 4.2 RU for the first, 5.2 RU for the second.

Compared with B10, B11 is lower in “Corrected response (RU)” value: 27 RU for the first, 2.6 RU for the second.

Compared with B12, B13 is higher in “Corrected response (RU)” value: 17.3 RU for the first, 21.6 RU for the second.

Compared with B14, B15 is higher in “Corrected response (RU)” value: 5.3 RU for the first, 28.9 RU for the second.

Compared with B16, B17 is higher in “Corrected response (RU)” value: -1 RU for the first, 2.7 RU for the second.

B18 was tested, and the “Corrected response (RU)” value was 6.7 RU.

target: T1, human FcRn (R&D Systems Cat. No. …); test: SPR, FcRn captured; Mean

First: B1
Second: B2
The “Corrected and normalised response (% of wild-type reference)” value of the first is lower: 94 % of wild-type reference for the first, 96.5 % of wild-type reference for the second.

With B3 the “Corrected and normalised response (% of wild-type reference)” value was 100 % of wild-type reference.

target: T1, human FcRn (R&D Systems Cat. No. …); test: SPR, FcRn captured; Expt 3

First: B1
Second: B2
The “Corrected and normalised response (% of wild-type reference)” value of the first is lower: 93.3 % of wild-type reference for the first, 96.3 % of wild-type reference for the second.

With B3 the “Corrected and normalised response (% of wild-type reference)” value was 100 % of wild-type reference.

target: T2, Histidine-tagged recombinant human …; test: SPR, His-FcγRI captured; Expt 1;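 also: SPR at 25 °C on anti-His antibody chip capturing FcγRI, Fc-variant antibodies injected at 100 µg/mL for 1 min, signal near end of injection minus buffer blank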

Compared with B4, B5 is lower in “Corrected response (RU)” value: 4.3 RU for the first, 1.8 RU for the second.

Compared with B6, B7 is lower in “Corrected response (RU)” value: 13.1 RU for the first, 0.4 RU for the second.

Going from B8 to B9, the “Corrected response (RU)” value rises from 3.9 RU to 4.4 RU.

Going from B10 to B11, the “Corrected response (RU)” value falls from 41.9 RU to -0.2 RU.

Compared with B12, B13 is higher in “Corrected response (RU)” value: 7.2 RU for the first, 33.7 RU for the second.

First: B14
Second: B15
The “Corrected response (RU)” value of the first is lower: 3.7 RU for the first, 6 RU for the second.

Going from B16 to B17, the “Corrected response (RU)” value rises from -1.8 RU to 4.3 RU.

B18 was tested, and the “Corrected response (RU)” value was 2.2 RU.

target: T1, human FcRn (R&D Systems Cat. No. …); test: SPR, FcRn captured; Expt 2

Compared with B1, B2 is higher in “Corrected and normalised response (% of wild-type reference)” value: 94.7 % of wild-type reference for the first, 97.1 % of wild-type reference for the second.

In the case of B3, the “Corrected and normalised response (% of wild-type reference)” value is reported as 99.7 % of wild-type reference.
